Results published in patent US20110251126A1, “INTESTINAL TREATMENT” (priority 2008, published 2011).
Square brackets hold non-standard residues; d marks the D form. Ends that are not written are not given here. Nle = CCCC[C@H](N)C(=O)O

Tests used:
small intestinal crypts = experiment: Surviving small intestinal crypts after 13Gy total body X-irradiation; format: in vivo, mice; conditions: analyzed four days following irradiation
Description: Twenty four 8-10 week old C57/B6 male mice randomized into three groups of each eight animals. Animals received PP[2-36] (0.1 mg/kg) s.c. twice daily for three days either prior or post radiation. Controls received vehicle both prior and post radiation.
Group 1 (pretreatment): PP[2-36] (0.1 mg/kg) twice daily on day −3, −2, −1; radiation on day 0; vehicle on day 0, +1, +2, +3. Group 2 (post treatment): Vehicle twice daily on day −3, −2, −1; radiation on day 0; PP[2-36] (0.1 mg/kg twice daily on day 0, +1, +2, +3. Group 3 (control): Vehicle twice daily on day −3, −2, −1; radiation on day 0; vehicle twice daily on day 0, +1, +2, +3. All animals were irradiated (day 0) to a single dose of 13Gy total body X-irradiation. Irradiation was performed using a Pantak HF320 X-ray set (Agfa NDT Ltd, Reading, UK). The machine was operated at 300 kV, 10 mA. The X-ray tube was fitted with additional filtration to give a radiation quality of 2.3 mm Cu half-value layer (HVL). Mice were restrained in a jig, positioned at a distance of 700 mm from the focus of the X-ray tube. Irradiation was delivered at a dose rate of 75.5 cGy/min. […] For each animal ten intestinal circumferences were analyzed—a circumference is equivalent to a given length of intestine and therefore a convenient baseline unit of length. The number of surviving crypts per circumference was scored and the average per group determined. […]

[1] = tested on: small intestinal crypt cells; experiment: Intestinal crypt cell proliferation (BrdU incorporation, cell positional scoring); format: in vivo, mice; conditions: 12 hours after dose
Description: 3 Groups of 8 male 8-10 weeks old C57/B6 mice were treated with group 1: Vehicle, group 2:PP(2-36) 0,1 mg/kg single injection s.c., group 3: PP(2-36) 1,0 mg/kg single injection s.c. Animals were euthanized 12 hours following the single injection of either dose. Vehicle was used as control. Prior to euthanasia all animals were given BrdU (Bromodeoxyuridine) i.p.—a marker for cell proliferation. The small intestine and colon were then removed and fixed in Carnoy's solution. From the Carnoy's fixed small intestinal material, paraffin blocks were generated and sectioned. Slides were immunolabelled to reveal the BrdU incorporation and analyzed on a cell positional basis (i.e. location of the individual cell in the hierarchy of cells in the crypt) to identify any induced proliferative changes (BrdU incorporation and mitotic counts). Fifty half crypts per mouse were scored on a cell positional basis, generating 400 frequency scores per group of 8 animals from which the means were generated and effects analyzed.

human Y4 receptor = human Y4 receptor (human, UniProt P50391 1-375); experiment: cell-based or functional assay
human Y4 receptor, sequence (P50391 whole entry): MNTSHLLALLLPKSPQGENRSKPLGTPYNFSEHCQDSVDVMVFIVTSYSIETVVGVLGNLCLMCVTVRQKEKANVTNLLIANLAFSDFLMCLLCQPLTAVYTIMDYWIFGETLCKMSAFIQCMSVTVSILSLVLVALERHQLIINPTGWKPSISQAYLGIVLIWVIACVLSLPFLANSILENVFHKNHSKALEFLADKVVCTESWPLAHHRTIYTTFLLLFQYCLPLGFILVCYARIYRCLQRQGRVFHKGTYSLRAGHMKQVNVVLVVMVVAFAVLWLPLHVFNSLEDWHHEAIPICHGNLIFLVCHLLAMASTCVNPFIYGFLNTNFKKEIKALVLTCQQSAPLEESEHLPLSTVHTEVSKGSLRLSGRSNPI

Molecule | increase in number of surviving crypts compared to vehicle control (small intestinal crypts; post treatment 0.1 mg/kg s.c. twice daily for four days post irradiation, non-significant p>0.05) | increase in number of surviving intestine crypts compared to vehicle control (small intestinal crypts; pretreatment 0.1 mg/kg s.c. twice daily for three days prior irradiation, p<0.05) | level of proliferation in the small intestinal crypts ([1]; 0,1 mg/kg single injection s.c.) | level of proliferation in the small intestinal crypts ([1]; 1 mg/kg single injection s.c.) | agonist potency (inositol phosphate turnover, transfected COS-7 cells): fold greater at Y4 than at Y1 receptor (human Y4 receptor) | agonist potency (inositol phosphate turnover, transfected COS-7 cells): fold greater at Y4 than at Y2 receptor (human Y4 receptor)
hPP2-36 (PLEPVYPGDNATPEQMAQYAADLRRYINMLTRPRY-NH2; listed as Homo sapiens) [PP[2-36]] | 47% | two | increased proliferation at cell positions 6-13 | stimulation was evident throughout the proliferative zone |  | 
APLEPVYPGENATPEQXAQYAADLRRYINXLTRPRY (norleucine (Nle) at positions 17 and 30) [[Glu10,Nle17,Nle30]hPP] |  |  |  |  | ≥ 200 fold | ≥ 1000 fold
APLEPVYPGDNATPEQLAQYAADLRRYINTLTRPRY (ends and bridges not checked) [[Leu17; Thr30]hPP] |  |  |  |  | ≥ 200 fold | ≥ 1000 fold
APLEPVYPGDNATPEQLAQYAADLRRYINSLTRPRY (ends and bridges not checked) [[Leu17; Ser30]hPP] |  |  |  |  | ≥ 200 fold | ≥ 1000 fold
LEPVYPGDNATPEQMAQYAADLRRYINMLTRPRY-NH2 [hPP3-36] |  |  |  |  | ≥ 200 fold | ≥ 1000 fold
PLEPVYPGENATPEQXAQYAADLRRYINXLTRPRY (norleucine (Nle) at positions 17 and 30, numbered on full-length hPP (SEQ ID No:3)) [[Glu10,Nle17,Nle30]hPP2-36] |  |  |  |  | ≥ 200 fold | ≥ 1000 fold
PLEPVYPGDNATPEQLAQYAADLRRYINSLTRPRY (ends and bridges not checked) [[Leu17; Ser30]hPP2-36] |  |  |  |  | ≥ 200 fold | ≥ 1000 fold
PLEPVYPGDNATPEQLAQYAADLRRYINTLTRPRY (ends and bridges not checked) [[Leu17; Thr30]hPP2-36] |  |  |  |  | ≥ 200 fold | ≥ 1000 fold
PLEPVYPGDNATPEQMAQYAADLRRYINALTRPRY (ends and bridges not checked) [[Ala30]hPP2-36] |  |  |  |  | ≥ 200 fold | ≥ 1000 fold
LEPVYPGENATPEQ[Nle]AQYAADLRRYIN[Nle]LTRPRY (ends and bridges not checked) [[Glu10,Nle17,Nle30]hPP3-36] |  |  |  |  | ≥ 200 fold | ≥ 1000 fold
LEPVYPGDNATPEQLAQYAADLRRYINTLTRPRY (ends and bridges not checked) [[Leu17; Thr30]hPP3-36] |  |  |  |  | ≥ 200 fold | ≥ 1000 fold
LEPVYPGDNATPEQLAQYAADLRRYINSLTRPRY (ends and bridges not checked) [[Leu17; Ser30]hPP3-36] |  |  |  |  | ≥ 200 fold | ≥ 1000 fold
